Experimental data taken from PMC8012715 (Nature Communications, 2021).

Experiments:
[1] = biological target: the molecule itself; assay: AUC; sedimentation velocity, absorbance at 280 nm, NanR alone at 3.3, 10 and 30 uM in 20 mM Tris-HCl pH 8.0, 150 mM NaCl, 20 °C, 50,000 rpm
[2] = biological target: the molecule itself; assay: AUC; multiwavelength sedimentation velocity (220-300 nm) of protein titrated against (GGTATA)3-repeat DNA, 50 mM sodium phosphate pH 7.4, 150 mM NaCl, 20 °C; oligomer told from the molar ratio of protein to DNA in co-migrating peaks

B1: Escherichia coli Nan repressor (NanR) (natural protein, E. coli K12, UniProt P0A8W0 1-263, looked up)
chain: MGLMNAFDSQTEDSSPAIGRNLRSRPLARKKLSEMVEEELEQMIRRREFGEGEQLPSERELMAFFNVGRPSVREALAALKRKGLVQINNGERARVSRPSADTIIGELSGMAKDFLSHPGGIAHFEQLRLFFESSLVRYAAEHATDEQIDLLAKALEINSQSLDNNAAFIRSDVDFHRVLAEIPGNPIFMAIHVALLDWLIAARPTVTDQALHEHNNVSYQQHIAIVDAIRRHDPDEADRALQSHLNSVSATWHAFGQTTNKKK
notes: NanR, GntR-type transcriptional repressor of E. coli K12; the synthesised nanR gene in pET28a; the dimer mass used (59 kDa) fits an untagged chain; Expressed with 100 uM ZnCl2; carries Zn2+; For the crystals the protein was treated in situ with chymotrypsin, and the cut limits are not known; also called wild-type NanR; E. coli NanR
- stoichiometry N [1]: 2

B2: truncated NanR construct NanR^33–263 (domain or fragment, E. coli K12, UniProt P0A8W0 33-263, looked up)
chain: SEMVEEELEQMIRRREFGEGEQLPSERELMAFFNVGRPSVREALAALKRKGLVQINNGERARVSRPSADTIIGELSGMAKDFLSHPGGIAHFEQLRLFFESSLVRYAAEHATDEQIDLLAKALEINSQSLDNNAAFIRSDVDFHRVLAEIPGNPIFMAIHVALLDWLIAARPTVTDQALHEHNNVSYQQHIAIVDAIRRHDPDEADRALQSHLNSVSATWHAFGQTTNKKK
notes: amplified from nanR and cloned into pET28a; No tag is named
- binding result [2]: binds
